Experimental data as given in patent publication US20110091994A1, “Methods for Screening Compounds for Treating and/or Preventing an Hepatitis C Virus Infection” (priority 2008, published 2011).

Experiments:
[1] = target: T1, HCV ORFs (Gal4-DB fusions) (Hepatitis C virus genotype 1b, UniProt Q9WMX2); assay type: binding, HCV genotype 1b, isolate con1; details: HCV protein NS3 as bait; human protein as prey
T1 construct: expressed in transfected cells; host or cells: Saccharomyces cerevisiae MAV203 (IMAP1) / AH109 (IMAP2)

[2] = system: HCV ORFs (Gal4-DB fusions); assay type: binding, HCV genotype 1b, isolate con1; details: human protein listed by gene symbol; the value names the HCV protein it interacts with
HCV proteins = target: T2, HCV proteins (Hepatitis C virus genotype 1b, UniProt Q9WMX2); assay: Validation by Y2H pairwise matrices; assay type: binding; details: validation of interaction with HCV protein NS3;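 further: yeast two-hybrid pairwise tests of interactions first found in Y2H screens of HCV bait proteins against human cDNA libraries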
T2 construct: expressed in transfected cells
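Wherever IMAP Y2H IMAP1 (number of IST) is given: yeast two-hybrid screens using HCV genotype 1b proteins fused to Gal4-DB as baits against prey cDNA libraries from human spleen and foetal brain, IMAP1 via transformation and IMAP2 via mating.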
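Wherever IMAP Y2H IMAP2 (number of IST) is given: yeast two-hybrid screens using HCV genotype 1b proteins fused to Gal4-DB as baits against prey cDNA libraries from human spleen and foetal brain, IMAP1 via transformation and IMAP2 via mating.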
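Wherever Interaction with viral protein is given: yeast two-hybrid screens using HCV genotype 1b proteins fused to Gal4-DB as baits against prey cDNA libraries from human spleen and foetal brain, IMAP1 via transformation and IMAP2 via mating.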

T2 sequence (Q9WMX2 1027-1657): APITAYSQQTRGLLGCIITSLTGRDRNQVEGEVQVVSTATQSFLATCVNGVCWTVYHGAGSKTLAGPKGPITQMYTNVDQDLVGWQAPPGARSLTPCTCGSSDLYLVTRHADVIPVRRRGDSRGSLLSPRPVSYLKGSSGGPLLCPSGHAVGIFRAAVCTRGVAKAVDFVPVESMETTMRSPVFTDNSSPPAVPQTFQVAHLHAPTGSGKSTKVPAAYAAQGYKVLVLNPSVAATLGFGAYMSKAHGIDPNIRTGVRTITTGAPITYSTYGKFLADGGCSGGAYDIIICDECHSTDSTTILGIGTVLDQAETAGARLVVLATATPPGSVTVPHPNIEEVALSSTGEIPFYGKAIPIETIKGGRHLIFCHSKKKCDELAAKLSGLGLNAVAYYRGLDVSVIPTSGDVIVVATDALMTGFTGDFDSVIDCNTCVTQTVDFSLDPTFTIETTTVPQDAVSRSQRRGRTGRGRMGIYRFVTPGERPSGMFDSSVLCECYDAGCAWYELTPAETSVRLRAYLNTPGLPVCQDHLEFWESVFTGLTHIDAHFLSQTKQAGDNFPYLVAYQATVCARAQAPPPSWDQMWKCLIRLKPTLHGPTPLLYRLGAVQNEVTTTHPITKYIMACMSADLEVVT
T1 sequence (Q9WMX2 1027-1657): as above

| Molecule | IMAP Y2H IMAP1 (number of IST) [1] | Interaction with viral protein [2] | Y2H matrices (HCV proteins) | IMAP Y2H IMAP2 (number of IST) [1] |
| --- | --- | --- | --- | --- |
| FRMPD4 (protein, UniProt Q14CM0 1-1322, looked up) FERM and PDZ …: MDVFSFVKIAKLSSHRTKSSGWPPPSGTWGLSQVPPYGWEMTANRDGRDYFINHMTQAIPFDDPRLESCQIIPPAPRKVEMRRDPVLGFGFVAGSEKPVVVRSVTPGGPSEGKLIPGDQIVMINDEPVSAAPRERVIDLVRSCKESILLTVIQPYPSPKSAFISAAKKARLKSNPVKVRFSEEVIINGQVSETVKDNSLLFMPNVLKVYLENGQTKSFRFDCSTSIKDVILTLQEKLSIKGIEHFSLMLEQRTEGAGTKLLLLHEQETLTQVTQRPSSHKMRCLFRISFVPKDPIDLLRRDPVAFEYLYVQSCNDVVQERFGPELKYDIALRLAALQMYIATVTTKQTQKISLKYIEKEWGLETFLPSAVLQSMKEKNIKKALSHLVKANQNLVPPGKKLSALQAKVHYLKFLSDLRLYGGRVFKATLVQAEKRSEVTLLVGPRYGISHVINTKTNLVALLADFSHVNRIEMFSEEESLVRVELHVLDVKPITLLMESSDAMNLACLTAGYYRLLVDSRRSIFNMANKKNTATQETGPENKGKHNLLGPDWNCIPQMTTFIGEGEQEAQITYIDSKQKTVEITDSTMCPKEHRHLYIDNAYSSDGLNQQLSQPGEAPCEADYRSLAQRSLLTLSGPETLKKAQESPRGAKVSFIFGDFALDDGISPPTLGYETLLDEGPEMLEKQRNLYIGSANDMKGLDLTPEAEGIQFVENSVYANIGDVKSFQAAEGIEEPLLHDICYAENTDDAEDEDEVSCEEDLVVGEMNQPAILNLSGSSDDIIDLTSLPPPEGDDNEDDFLLRSLNMAIAAPPPGFRDSSDEEDSQSQAASFPEDKEKGSSLQNDEIPVSLIDAVPTSAEGKCEKGLDNAVVSTLGALEALSVSEEQQTSDNSGVAILRAYSPESSSDSGNETNSSEMTESSELATAQKQSENLSRMFLATHEGYHPLAEEQTEFPASKTPAGGLPPKSSHALAARPATDLPPKVVPSKQLLHSDHMEMEPETMETKSVTDYFSKLHMGSVAYSCTSKRKSKLADGEGKAPPNGNTTGKKQQGTKTAEMEEEASGKFGTVSSRDSQHLSTFNLERTAFRKDSQRWYVATEGGMAEKSGLEAATGKTFPRASGLGAREAEGKEEGAPDGETSDGSGLGQGDRFLTDVTCASSAKDLDNPEDADSSTCDHPSKLPEADESVARLCDYHLAKRMSSLQSEGHFSLQSSQGSSVDAGCGTGSSGSACATPVESPLCPSLGKHLIPDASGKGVNYIPSEERAPGLPNHGATFKELHPQTEGMCPRMTVPALHTAINTEPLFGTLRDGCHRLPKIKETTV | 1 | NS3 | + |  |
| GNB2 (protein, UniProt P62879 2-340, looked up) Guanine nucleotide-binding …: SELEQLRQEAEQLRNQIRDARKACGDSTLTQITAGLDPVGRIQMRTRRTLRGHLAKIYAMHWGTDSRLLVSASQDGKLIIWDSYTTNKVHAIPLRSSWVMTCAYAPSGNFVACGGLDNICSIYSLKTREGNVRVSRELPGHTGYLSCCRFLDDNQIITSSGDTTCALWDIETGQQTVGFAGHSGDVMSLSLAPDGRTFVSGACDASIKLWDVRDSMCRQTFIGHESDINAVAFFPNGYAFTTGSDDATCRLFDLRADQELLMYSHDNIICGITSVAFSRSGRLLLAGYDDFNCNIWDAMKGDRAGVLAGHDNRVSCLGVTDDGMAVATGSWDSFLKIWN | 1 | NS3 | + |  |
| FUCA2 (protein, UniProt Q9BTY2 29-467, looked up) Plasma alpha-L-fucosidase: HSATRFDPTWESLDARQLPAWFDQAKFGIFIHWGVFSVPSFGSEWFWWYWQKEKIPKYVEFMKDNYPPSFKYEDFGPLFTAKFFNANQWADIFQASGAKYIVLTSKHHEGFTLWGSEYSWNWNAIDEGPKRDIVKELEVAIRNRTDLRFGLYYSLFEWFHPLFLEDESSSFHKRQFPVSKTLPELYELVNNYQPEVLWSDGDGGAPDQYWNSTGFLAWLYNESPVRGTVVTNDRWGAGSICKHGGFYTCSDRYNPGHLLPHKWENCMTIDKLSWGYRREAGISDYLTIEELVKQLVETVSCGGNLLMNIGPTLDGTISVVFEERLRQMGSWLKVNGEAIYETHTWRSQNDTVTPDVWYTSKPKEKLVYAIFLKWPTSGQLFLGHPKAILGATEVKLLGHGQPLNWISLEQNGIMVELPQLTIHQMPCKWGWALALTNVI | 2 | NS3 | + |  |
| HOMER3 (protein, UniProt Q9NSC5 1-361, looked up) Homer protein homolog 3: MSTAREQPIFSTRAHVFQIDPATKRNWIPAGKHALTVSYFYDATRNVYRIISIGGAKAIINSTVTPNMTFTKTSQKFGQWADSRANTVYGLGFASEQHLTQFAEKFQEVKEAARLAREKSQDGGELTSPALGLASHQVPPSPLVSANGPGEEKLFRSQSADAPGPTERERLKKMLSEGSVGEVQWEAEFFALQDSNNKLAGALREANAAAAQWRQQLEAQRAEAERLRQRVAELEAQAASEVTPTGEKEGLGQGQSLEQLEALVQTKDQEIQTLKSQTGGPREALEAAEREETQQKVQDLETRNAELEHQLRAMERSLEEARAERERARAEVGRAAQLLDVSLFELSELREGLARLAEAAP | 4 | NS3 | + | 1 |
| FES (protein, UniProt P07332 1-822, looked up) Tyrosine-protein kinase …: MGFSSELCSPQGHGVLQQMQEAELRLLEGMRKWMAQRVKSDREYAGLLHHMSLQDSGGQSRAISPDSPISQSWAEITSQTEGLSRLLRQHAEDLNSGPLSKLSLLIRERQQLRKTYSEQWQQLQQELTKTHSQDIEKLKSQYRALARDSAQAKRKYQEASKDKDRDKAKDKYVRSLWKLFAHHNRYVLGVRAAQLHHQHHHQLLLPGLLRSLQDLHEEMACILKEILQEYLEISSLVQDEVVAIHREMAAAAARIQPEAEYQGFLRQYGSAPDVPPCVTFDESLLEEGEPLEPGELQLNELTVESVQHTLTSVTDELAVATEMVFRRQEMVTQLQQELRNEEENTHPRERVQLLGKRQVLQEALQGLQVALCSQAKLQAQQELLQTKLEHLGPGEPPPVLLLQDDRHSTSSSEQEREGGRTPTLEILKSHISGIFRPKFSLPPPLQLIPEVQKPLHEQLWYHGAIPRAEVAELLVHSGDFLVRESQGKQEYVLSVLWDGLPRHFIIQSLDNLYRLEGEGFPSIPLLIDHLLSTQQPLTKKSGVVLHRAVPKDKWVLNHEDLVLGEQIGRGNFGEVFSGRLRADNTLVAVKSCRETLPPDLKAKFLQEARILKQYSHPNIVRLIGVCTQKQPIYIVMELVQGGDFLTFLRTEGARLRVKTLLQMVGDAAAGMEYLESKCCIHRDLAARNCLVTEKNVLKISDFGMSREEADGVYAASGGLRQVPVKWTAPEALNYGRYSSESDVWSFGILLWETFSLGASPYPNLSNQQTREFVEKGGRLPCPELCPDAVFRLMEQCWAYEPGQRPSFSTIYQELQSIRKRHR | 1 | NS3 | + |  |
| FIGNL1 (protein, UniProt Q6PIW4 1-674, looked up) Fidgetin-like protein 1: MQTSSSRSVHLSEWQKNYFAITSGICTGPKADAYRAQILRIQYAWANSEISQVCATKLFKKYAEKYSAIIDSDNVESGLNNYAENILTLAGSQQTDSDKWQSGLSINNVFKMSSVQKMMQAGKKFKDSLLEPALASVVIHKEATVFDLPKFSVCGSSQESDSLPNSAHDRDRTQDFPESNRLKLLQNAQPPMVTNTARTCPTFSAPVGESATAKFHVTPLFGNVKKENHSSAKENIGLNVFLSNQSCFPAACENPQRKSFYGSGTIDALSNPILNKACSKTEDNGPKEDSSLPTFKTAKEQLWVDQQKKYHQPQRASGSSYGGVKKSLGASRSRGILGKFVPPIPKQDGGEQNGGMQCKPYGAGPTEPAHPVDERLKNLEPKMIELIMNEIMDHGPPVNWEDIAGVEFAKATIKEIVVWPMLRPDIFTGLRGPPKGILLFGPPGTGKTLIGKCIASQSGATFFSISASSLTSKWVGEGEKMVRALFAVARCQQPAVIFIDEIDSLLSQRGDGEHESSRRIKTEFLVQLDGATTSSEDRILVVGATNRPQEIDEAARRRLVKRLYIPLPEASARKQIVINLMSKEQCCLSEEEIEQIVQQSDAFSGADMTQLCREASLGPIRSLQTADIATITPDQVRPIAYIDFENAFRTVRPSVSPKDLELYENWNKTFGCGK | 1 | NS3 | + |  |
| FBLN1 (protein, UniProt P23142 30-703, looked up) Fibulin-1: DVLLEACCADGHRMATHQKDCSLPYATESKECRMVQEQCCHSQLEELHCATGISLANEQDRCATPHGDNASLEATFVKRCCHCCLLGRAAQAQGQSCEYSLMVGYQCGQVFQACCVKSQETGDLDVGGLQETDKIIEVEEEQEDPYLNDRCRGGGPCKQQCRDTGDEVVCSCFVGYQLLSDGVSCEDVNECITGSHSCRLGESCINTVGSFRCQRDSSCGTGYELTEDNSCKDIDECESGIHNCLPDFICQNTLGSFRCRPKLQCKSGFIQDALGNCIDINECLSISAPCPIGHTCINTEGSYTCQKNVPNCGRGYHLNEEGTRCVDVDECAPPAEPCGKGHRCVNSPGSFRCECKTGYYFDGISRMCVDVNECQRYPGRLCGHKCENTLGSYLCSCSVGFRLSVDGRSCEDINECSSSPCSQECANVYGSYQCYCRRGYQLSDVDGVTCEDIDECALPTGGHICSYRCINIPGSFQCSCPSSGYRLAPNGRNCQDIDECVTGIHNCSINETCFNIQGGFRCLAFECPENYRRSAATLQQEKTDTVRCIKSCRPNDVTCVFDPVHTISHTVISLPTFREFTRPEEIIFLRAITPPHPASQANIIFDITEGNLRDSFDIIKRYMDGMTVGVVRQVRPIVGPFHAVLKLEMNYVVGGVVSHRNVVNVHIFVSEYWF | 8 | NS3 | + |  |
